{"source": "patent US20250101117A1", "about": "(Genentech, published 2025)", "binders": {"B1": {"name": "Vixarelimab (antibody, human IgG4 S228P, lambda, N297Q, V domains shown)", "VH": "QVQLVQSGAEVKKPGASVKVSCKASGYTFTSYEINWVRQATGQGLEWMGWMNPNSGYTGYAQKFQGRVTMTRDTSISTAYMEMSSLRSEDTAVYYCARDIVAANTDYYFYYGMDVWGQGTTVTVSS", "VL": "QSVLTQPPSASGTPGQRVTISCSGSNSNIGSNTVNWYHQLPGTAPKLLIYNINKRPSGVPDRFSGSKSGSSASLAISGLQSEDEADYYCSTWDDSLDGVVFGGGTKLTVLG"}}, "biological_target": "T1, oncostatin M receptor-beta (OSMRβ) (human, UniProt Q99650 28-979)", "T1 sequence (looked up)": "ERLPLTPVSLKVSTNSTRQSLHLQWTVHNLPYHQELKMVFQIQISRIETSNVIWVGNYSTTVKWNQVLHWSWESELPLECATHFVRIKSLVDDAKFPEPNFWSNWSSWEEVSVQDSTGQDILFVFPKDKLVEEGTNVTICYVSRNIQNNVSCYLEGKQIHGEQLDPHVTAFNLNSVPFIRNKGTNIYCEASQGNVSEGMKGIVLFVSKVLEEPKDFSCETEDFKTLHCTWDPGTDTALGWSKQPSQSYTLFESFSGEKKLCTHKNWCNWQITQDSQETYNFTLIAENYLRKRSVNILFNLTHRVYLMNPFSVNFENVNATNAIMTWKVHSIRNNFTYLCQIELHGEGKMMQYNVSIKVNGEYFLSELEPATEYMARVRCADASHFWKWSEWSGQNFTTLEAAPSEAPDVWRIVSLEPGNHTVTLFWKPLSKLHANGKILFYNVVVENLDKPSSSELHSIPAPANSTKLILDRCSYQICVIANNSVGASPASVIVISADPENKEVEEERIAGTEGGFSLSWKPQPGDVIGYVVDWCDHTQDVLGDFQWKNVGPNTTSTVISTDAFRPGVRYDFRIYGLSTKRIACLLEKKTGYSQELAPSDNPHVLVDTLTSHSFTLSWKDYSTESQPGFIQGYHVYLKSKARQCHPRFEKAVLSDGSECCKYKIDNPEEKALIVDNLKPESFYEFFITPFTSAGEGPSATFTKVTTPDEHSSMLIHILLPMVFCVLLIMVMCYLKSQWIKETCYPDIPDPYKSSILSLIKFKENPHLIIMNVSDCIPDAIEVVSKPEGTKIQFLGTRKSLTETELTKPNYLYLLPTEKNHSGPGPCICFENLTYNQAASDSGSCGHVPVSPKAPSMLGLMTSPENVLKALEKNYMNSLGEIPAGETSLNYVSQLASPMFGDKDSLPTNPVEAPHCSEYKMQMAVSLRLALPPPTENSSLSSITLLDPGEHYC", "assay": "cell-based or functional assay", "data": [{"binder": "B1", "values": [{"measurement": "Mean of IC50, inhibition of OSM-induced pSTAT3; IBD-derived intestinal fibroblasts, [OSM] 1 ng/mL (standard deviation 0.05)", "value": 0.14, "unit": "nM"}, {"measurement": "Mean of IC50, inhibition of OSM-induced pSTAT3; IBD-derived intestinal fibroblasts, [OSM] 10 ng/mL (standard deviation 0.36)", "value": 1.15, "unit": "nM"}, {"measurement": "Mean of IC50, inhibition of OSM-induced pSTAT3; normal keratinocytes, [OSM] 10 ng/mL (standard deviation 0.18)", "value": 0.36, "unit": "nM"}]}]}
